Biological target: T1, human LY6G6D-Fc (human, UniProt O95868 20-104)
T1 construct: also called huLY6G6D; hu Ly6G6D; not shown: linker and Fc
T1 sequence: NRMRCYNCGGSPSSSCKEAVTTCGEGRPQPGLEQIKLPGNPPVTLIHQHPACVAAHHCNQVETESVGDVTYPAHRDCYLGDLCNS
Assay: BIAcore SPR; chimeric Fab; Ly6G6D-Fc captured on Protein A chip, 37 C (FIG. 34C)
Description: FIG. 34C is a set of graphs showing binding of Fab variants of rabbit 20A12, rabbit 20A12 comprising […] and C50A (IA) mutations, and the polished humanized 20A12 having a QNT amino acid substitution mutations at the glycosylation site of FIG. 34B to LY6G6D, as measured using a BIAcore assay. Ly6G6D-Fc was captured on a Protein A chip, and the Fab was flowed through at 37° C..

B1: rb20A12.IA (C35I-C50A) chimeric Fab (Fab, V domains shown)
VH: QQQLEESGGDLVKPGASLTLTCTASGFDFVNNAMIWVRQAPGKGLEWIAALSFADNTAYYATWASGRFTISKISSTTVTLRMTSLTGADTATYFCMRGDLWGPGTLVTVSS
VL: DIVMTQTPSSVSAAVGGTVTINCQASESITRYLNWYQQKPGQPPKLLIYDASKLPSGVPSRFKGSGSGTQFTLTTSDLECADAATYYCQSTSFRGRSYNNTFGGGTEVVVK
modifications: CDR-L3 NNT site is N-glycosylated.
notes: also called rabbit 20A12 comprising C35I and C50A (IA) mutations
**Q.** For B1, which Kd is on record?
**A.** The Kd was 0.86 nM.

From patent US20240190966A1 (published 2024)
